Data on two substances can be found in paper PMC11904948, “Peptide‐Drug Conjugate for Therapeutic Reprogramming of Tumor‐Associated Macrophages in Breast Cancer” (Advanced Science, 2025).

The subject of data set [1] is IL‐4‐stimulated primary human macrophages. Description: In vitro photodynamic therapy, MTT viability, IL-4-stimulated macrophages. It is filed as cell-based. As to conditions: 30 µM 1 h 37 °C, washed. From the text:
(§1) We next coupled MACTIDE to the photosensitizer Verteporfin, intending to deplete CD206^+ TAM using photodynamic therapy (PDT). To this end, carboxy‐Verteporfin was coupled to the N‐terminus of MACTIDE, a construct referred to as “MACTIDE‐V” (Figure 5A). We performed in vitro photodynamic therapy with MACTIDE‐V on primary human macrophages stimulated with IL‐4 or LPS + IFNγ.
(§2) Figure 5 In vitro and in vivo photodynamic therapy with MACTIDE‐V. A) Structure of MACTIDE‐V. B) MACTIDE‐V, CtrlPep‐V, and DOX were incubated with primary human macrophages (obtained from monocytes derived from human blood buffy coat) at 30 µM for 1 h at 37 °C, followed by 2 washes with media. Then, the groups shown in pink were irradiated with 10 J cm^−2 (irradiance: 170 mW cm^−2, spot diameter: 0.5 cm). […] Peptide‐V conjugates were administered i.p. at a dose of 30 nmol (1 mg Kg^−1 in Verteporfin). For the irradiated groups, 4 h after administration of conjugates or PBS, the mice were irradiated with 100 J cm^−2; shown is primary tumor volume progression during treatment. Gray arrows indicate injection days. D) Bodyweight during the treatment as % of the initial one. E) Representative mIHC images of PBS, CtrlPep‐V, and MACTIDE‐V‐treated tumors, 20X magnification, scale bar = 100 µm, white triangles point to Foxp3^+ cells. F) CD8^+ T cells, CD4^+ T cells, and Treg density, n = 6 mice/group, with every dot representing the mean cell density of each tumor obtained from 20 images. G) CD8^+ T cells density in CK8^+‐dense tumor regions. n = 5 mice/group, with every dot representing the mean cell density of each tumor obtained from 20 images. Median ± interquartile range. One‐way ANOVA with multiple comparisons, ^* p ≤ 0.05, ^** p ≤ 0.01.
(§3) Human peripheral mononuclear cells (PBMCs) were purified from human blood buffy coats following the protocol described previously.^[ [24] ^] […] Crystal formation was monitored every 20–30 min to not oversaturate the absorbance values.

The subject of data set [2] is LPS + IFNγ‐stimulated primary human macrophages. Description: In vitro photodynamic therapy, MTT viability, LPS + IFNγ-stimulated macrophages. It counts as cell-based. As to conditions: 30 µM 1 h 37 °C, washed.
Text: as §1, §2, §3

Where [3] appears, read: with or without 10 J cm^−2, 48 h.
Setting [4] is: irradiated 10 J cm^−2 (689 nm), 48 h, n = 6.

In the case of “Vert‐Ahx‐AKPCGS‐OH [CtrlPep‐V, reference compound]”, the “toxicity with and without irradiation” value in data set [1] (setting [3]) and in data set [2] (setting [3]) was “no toxicity” each time.

As for “Vert‐Ahx‐G(CTKSIPPIC)SPGAK‐OH (disulfide) [MACTIDE‐V]”, the “macrophages depleted, irradiated” value in data set [1] (setting [4]) turned out to be 80%; in data set [2] (setting [4]), 40%. Further, the “toxicity, non‐irradiated” value in data set [1] (no irradiation, 48 h, n = 6) is “no toxicity”; in data set [2] (no irradiation, 48 h, n = 6), “no toxicity”.
